These results are taken from paper PMC2871490 (The Journal of Biological Chemistry, 2010).

Some targets named below: His6-Daam1 CT (human, UniProt Q9Y4D1 490-1078); GST-Daam1 CT WT (human, UniProt Q9Y4D1 490-1078); GST-Daam1 CT L1040A (human, UniProt Q9Y4D1 490-1078, L1040A).
Holding throughout (assay): pull-down
The target in another assay is T1, His6-Daam1 NT (human, UniProt Q9Y4D1 41-477).
T1 sequence: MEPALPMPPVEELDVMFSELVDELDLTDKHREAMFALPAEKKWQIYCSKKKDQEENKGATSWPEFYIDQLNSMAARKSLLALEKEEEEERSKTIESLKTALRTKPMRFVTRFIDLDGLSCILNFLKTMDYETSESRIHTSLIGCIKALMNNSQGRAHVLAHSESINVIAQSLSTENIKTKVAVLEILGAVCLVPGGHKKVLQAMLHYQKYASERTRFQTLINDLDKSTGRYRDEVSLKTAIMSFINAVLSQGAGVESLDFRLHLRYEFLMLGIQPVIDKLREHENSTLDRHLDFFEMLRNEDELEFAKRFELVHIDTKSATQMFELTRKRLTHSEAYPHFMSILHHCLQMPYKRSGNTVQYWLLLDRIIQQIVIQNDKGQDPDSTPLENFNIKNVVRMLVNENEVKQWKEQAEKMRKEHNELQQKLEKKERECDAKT

The next assay has as its target T2, His6-Fli-I G1–6 (human, UniProt Q13045 461-1269).
T2 sequence: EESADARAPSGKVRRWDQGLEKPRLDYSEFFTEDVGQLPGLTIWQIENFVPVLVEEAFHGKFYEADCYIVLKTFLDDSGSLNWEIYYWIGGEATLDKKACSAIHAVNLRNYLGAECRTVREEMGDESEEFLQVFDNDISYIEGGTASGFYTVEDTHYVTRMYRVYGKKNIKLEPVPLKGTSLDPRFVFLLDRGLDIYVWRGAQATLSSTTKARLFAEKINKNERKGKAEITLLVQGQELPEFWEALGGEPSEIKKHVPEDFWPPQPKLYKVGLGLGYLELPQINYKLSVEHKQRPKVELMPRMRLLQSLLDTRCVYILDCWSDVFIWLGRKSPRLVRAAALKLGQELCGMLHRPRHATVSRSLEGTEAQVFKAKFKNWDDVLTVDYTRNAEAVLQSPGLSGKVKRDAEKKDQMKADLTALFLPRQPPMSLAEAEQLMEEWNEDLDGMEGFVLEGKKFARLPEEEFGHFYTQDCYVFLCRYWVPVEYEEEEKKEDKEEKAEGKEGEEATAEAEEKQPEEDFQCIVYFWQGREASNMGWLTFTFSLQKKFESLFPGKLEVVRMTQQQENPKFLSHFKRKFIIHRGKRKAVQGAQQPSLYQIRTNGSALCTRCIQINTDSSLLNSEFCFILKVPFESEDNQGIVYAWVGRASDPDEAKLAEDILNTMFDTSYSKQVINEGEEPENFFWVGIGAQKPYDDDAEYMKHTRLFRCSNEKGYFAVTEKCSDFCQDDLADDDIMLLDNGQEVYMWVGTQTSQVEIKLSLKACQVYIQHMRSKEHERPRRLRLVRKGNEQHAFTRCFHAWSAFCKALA

B1: GST-Daam1 DAD (domain or fragment)
chain: NMRKKKEEEERRARMEAQLKEQRERERKMRKAKENSEESGEFDDLVSALRSGEVFDKDLSKLKRNRKRITNQMTDSSRERPITKLNF
B1: the binding result in the assay with His6-Daam1 NT and with His6-Fli-I G1–6 was “binds” each time.

B2: GST-Daam1 NT (domain or fragment)
chain: MEPALPMPPVEELDVMFSELVDELDLTDKHREAMFALPAEKKWQIYCSKKKDQEENKGATSWPEFYIDQLNSMAARKSLLALEKEEEEERSKTIESLKTALRTKPMRFVTRFIDLDGLSCILNFLKTMDYETSESRIHTSLIGCIKALMNNSQGRAHVLAHSESINVIAQSLSTENIKTKVAVLEILGAVCLVPGGHKKVLQAMLHYQKYASERTRFQTLINDLDKSTGRYRDEVSLKTAIMSFINAVLSQGAGVESLDFRLHLRYEFLMLGIQPVIDKLREHENSTLDRHLDFFEMLRNEDELEFAKRFELVHIDTKSATQMFELTRKRLTHSEAYPHFMSILHHCLQMPYKRSGNTVQYWLLLDRIIQQIVIQNDKGQDPDSTPLENFNIKNVVRMLVNENEVKQWKEQAEKMRKEHNELQQKLEKKERECDAKT
For B2, in the assay with His6-Daam1 CT, the binding result is “binds”.

B3: His6-Fli-I G4–6 (domain or fragment)
chain: KKDQMKADLTALFLPRQPPMSLAEAEQLMEEWNEDLDGMEGFVLEGKKFARLPEEEFGHFYTQDCYVFLCRYWVPVEYEEEEKKEDKEEKAEGKEGEEATAEAEEKQPEEDFQCIVYFWQGREASNMGWLTFTFSLQKKFESLFPGKLEVVRMTQQQENPKFLSHFKRKFIIHRGKRKAVQGAQQPSLYQIRTNGSALCTRCIQINTDSSLLNSEFCFILKVPFESEDNQGIVYAWVGRASDPDEAKLAEDILNTMFDTSYSKQVINEGEEPENFFWVGIGAQKPYDDDAEYMKHTRLFRCSNEKGYFAVTEKCSDFCQDDLADDDIMLLDNGQEVYMWVGTQTSQVEIKLSLKACQVYIQHMRSKEHERPRRLRLVRKGNEQHAFTRCFHAWSAFCKALA
On to B3, for which the binding result in the assay with GST-Daam1 CT WT, with His6-Daam1 CT and with GST-Daam1 CT L1040A was “binds” throughout.

B4: GST-Fli-I G4–6 (domain or fragment)
chain: KKDQMKADLTALFLPRQPPMSLAEAEQLMEEWNEDLDGMEGFVLEGKKFARLPEEEFGHFYTQDCYVFLCRYWVPVEYEEEEKKEDKEEKAEGKEGEEATAEAEEKQPEEDFQCIVYFWQGREASNMGWLTFTFSLQKKFESLFPGKLEVVRMTQQQENPKFLSHFKRKFIIHRGKRKAVQGAQQPSLYQIRTNGSALCTRCIQINTDSSLLNSEFCFILKVPFESEDNQGIVYAWVGRASDPDEAKLAEDILNTMFDTSYSKQVINEGEEPENFFWVGIGAQKPYDDDAEYMKHTRLFRCSNEKGYFAVTEKCSDFCQDDLADDDIMLLDNGQEVYMWVGTQTSQVEIKLSLKACQVYIQHMRSKEHERPRRLRLVRKGNEQHAFTRCFHAWSAFCKALA
Regarding B4, the binding result in the assay with His6-Daam1 CT was “binds”.
